Data taken from article PMC2118782.
Read-outs that look alike come from different tables or passages of the source.

Columns and labels:
[1] = molecular target: Ld class I major histocompatibility complex molecule (30-5-7+ Ld) (mouse); assay: co-IP
[2] = molecular target: Ld class I major histocompatibility complex molecule (30-5-7+ Ld) (mouse); assay: co-IP; remark: listed apart in the source

Ld class I major histocompatibility complex molecule (30-5-7+ Ld) (mouse), sequence (P01897 25-362, one chain of several): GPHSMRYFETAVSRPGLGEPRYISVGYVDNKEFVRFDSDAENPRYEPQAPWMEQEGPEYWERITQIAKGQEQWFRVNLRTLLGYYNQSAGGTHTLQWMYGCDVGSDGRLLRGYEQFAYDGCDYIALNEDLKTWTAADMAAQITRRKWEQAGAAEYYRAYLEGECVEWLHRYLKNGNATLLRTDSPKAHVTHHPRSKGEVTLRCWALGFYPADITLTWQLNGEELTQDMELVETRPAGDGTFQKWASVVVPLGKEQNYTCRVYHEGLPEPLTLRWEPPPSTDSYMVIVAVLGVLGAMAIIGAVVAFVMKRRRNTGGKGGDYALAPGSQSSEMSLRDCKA

In the case of MCMV pp89 168-176 peptide, the percent precipitable counts [1] is reported as 98%, the pellet cpm (bound peptide) [2] is reported as 7630 cpm and the percent precipitable counts [2] is reported as 80%.
